Measurements taken from the PETadex activity labels (doi:10.1038/s41467-025-61599-z).

Assays:
[1] = Proxy for plastic degradation [UPLC/UHPLC]; settings: pH 9
[2] = substrate: pNPB; test: Proxy for plastic degradation [Absorbance @ 430nm] (min⁻¹); settings: pH 8; part of the chain shown
[3] = substrate: PET; test: Proxy for plastic degradation [Released monomer concentration (HPLC/LC-MS) (MHET+TPA)]; settings: pH 9, part of the chain shown
[4] = substrate: PET; test: Proxy for plastic degradation [Released monomer concentration (HPLC/LC-MS) (TPA+MHET)]
[5] = substrate: PET; test: Proxy for plastic degradation [kcat/Km (catalytic efficiency)] (mM⁻¹s⁻¹); settings: pH 8
[6] = Proxy for plastic degradation [Released monomer concentration (HPLC/LC-MS) (TPA+MHET)]

Row | Protein | Proxy for plastic degradation ([1]; 30 °C) | Proxy for plastic degradation ([1]; 40 °C) | Proxy for plastic degradation ([1]; 50 °C) | Proxy for plastic degradation ([1]; 55 °C) | Proxy for plastic degradation ([1]; 60 °C) | further results
1 | unnamed (protein) MNAPLFKLAALTLGLSLASVVLANNPGGGGGTAPDTGTGFPGVSNFSASGSFATTSGSAGASCTVFRPSTLGANNRKHPIIVWGNGTTASPNTYASLLQHWASHGFVVIAANTSNAGTGQEMLGCVDYLTTQNNRSTGTYAGKLDLNRIGAAGHSQGGGGTIMAGQDYRIKVTAPFQPYTIGLGHNSSSQSNQNGPMFLMTGSIDTIASPTLNALPVYTRANVPVFWGELSGASHFEPVGNAGDFRGPATAWFRYHLMDDASAEDTFYGSNCDLCTDRDWDVRRKGIN | 8.31 µM | 9.03 µM | 9.57 µM | 9.09 µM | 9.47 µM | –
2 | unnamed (protein) MLSKRGILGALAGGAVAVGCLTAPAHAAGFEKGPDPTTASVTADRGSYDIAQVDVPKGSGTGFADGTIYYPKSTADGTFGAVAVIPGFLEPKSAIDWYGPRLASQGFVVMTLDTTSVFDTPDSRGGQLLAALDYLTSKSTVKDRIDPNRLAVVGHSMGGGGTLSAAANRPNLKAAVALAPWHVSAPLTSVKTPTMIFGSDNDFIAPDGTFAKPFYDGISNAPEKAYVRLKNAGHMAYVFPDKRIAEYTLSWLKRYVDDDTRYTQFLCPGPTNESTIAAYKSTCPM | 14.7 µM | 14.2 µM | 14.1 µM | 14.4 µM | 15 µM | –
3 | unnamed (protein) MRVLAMTLALVASTLATPTALAAPPDYGLPGSYPVAYSDVTAVAGGRSVPARVHYPATTSGTNQPVATGRFPVIAFGHGFFQATSKYTSTSTHLASWGFVVVVPTTQGGLSPSHGAFADDLNTGLTWLVAQDGTTGSRFRDHITTTALGVSGHSMGGGAAVLAAARNPKIKAVSTYAAAETNPSAKAAAATLAAPAQFLAGSQDTITPVGDHQRPMFTAKPPARQLRTITGGFHCGFMDSSGLFCDNGSITRAAQLTASKRVMTSWFRHYLSGDTAARDLVWGQPARTDPAVVFEGTE | 13 µM | 18 µM | 16.6 µM | 16.2 µM | 16.5 µM | –
4 | unnamed (protein) APPDYGLPGSYPVAYSDVTAVAGGRSVPARVHYPATTSGTNQPVATGRFPVIA | – | – | – | – | – | Proxy for plastic degradation [2]: 13000; Proxy for plastic degradation ([3]; 30 °C): 13 µM; Proxy for plastic degradation ([3]; 40 °C): 18 µM; Proxy for plastic degradation ([3]; 50 °C): 16.6 µM; Proxy for plastic degradation ([3]; 55 °C): 16.2 µM; Proxy for plastic degradation ([3]; 60 °C): 16.5 µM
5 | unnamed (protein) MAVMTPRRERSSLLSRALQVTAAAATALVTAVSLAAPAHAANPYERGPNPTDALLEASSGPFSVSEENVSRLSASGFGGGTIYYPRENNTYGAVAISPGYTGTEASIAWLGERIASHGFVVITIDTITTLDQPDSRAEQLNAALNHMINRASSTVRSRIDSSRLAVMGHSMGGGGTLRLASQRPDLKAAIPLTPWHLNKNWSSVTVPTLIIGADLDTIAPVATHAKPFYNSLPSSISKAYLELDGATHFAPNIPNKIIGKYSVAWLKRFVDNDTRYTQFLCPGPRDGLFGEVEEYRSTCPF | – | – | – | – | – | Proxy for plastic degradation ([4]; 30 °C): 7.78 µM; Proxy for plastic degradation ([4]; 40 °C): 26.7 µM; Proxy for plastic degradation ([4]; 50 °C): 124 µM; Proxy for plastic degradation ([4]; 55 °C): 850 µM; Proxy for plastic degradation ([4]; 60 °C): 140 µM
6 | unnamed (protein) MGGGGEDNVFAEPGDFDVVTEPGGRDCTIFRPEQLGDDHAVVIWGNGTGASPNTYAGLLRHYASHGFVVVAANTSNAGTGEDMLNCLDFLEGSQLASSVDFSKVGATGHSQGGGGAIMAGVDPRIATTAPIEGFTLGLGHDRDSHDQQNGPMLILSGSADRLVNPRTNHAPLFDATNVPAFWAIAQGAGHFEPVGDGGDFRGISTAWFLFQLEDDPEATTHFVGDDCFVCEDPGFDVEGVKEID | 14 µM | 13.8 µM | 15.8 µM | 14.4 µM | 14.9 µM | –
7 | unnamed (protein) MQDNSDGRYRPEGRTFARGAANLFDDRLFEARTYVTGTDVAEFASATIFYPLTLSFDLPNGVVVMSPGYTGTPESYDWWGPMLASVGIITAIIETNTPEDNLEQRKNALIAGIELIKRENANSASPINNKVDESQIAIMGHSLGGGASLRAAEELEGDIKAVIPLTPYCCELGQSFEGDLKGVSTPTLIIAAADDTIAPPETHSRLLYDEINSSTNKVYLEFAEGAHGLPTNQGSEFQTQGTYVYAFLKANFTNDSKYSDFIGGDGEDSFSSYETN | 15.4 µM | 15.5 µM | 15.5 µM | 16.6 µM | 16.1 µM | –
8 | unnamed (protein) MRARIAALVAVPFLGAGAFAVSSVAAGDPPAVRTVPAAAAAPVDWSKTGPHQVKVDKADAHTIYRPSDLGSGGVKNPVVIWGNGTGATPAAYDGLLRHWASHGFVVAAANTKQANNGNAMRAGLDLVTKWNTTSSSPYYGKVDVSRVASSGHSQGGAGAMNAAVDTRVDAVLPIQPGPLAAPRKFKQPTFYMAGQNDRVVWPSWVRNFYNKSGHLPAVFGVVRGATHVAPAGDGGAFRGPTTAWLSFTLRGDASARAQFAGASCGYCGASSPFSNWLRNTRFTSQNG | 12.7 µM | 12.6 µM | 15.7 µM | 16 µM | 16.4 µM | –
9 | unnamed (protein) MKTNRRTLMLTGIAMTIGTAGRAAQATPEFKPQPGPLSIKSAAAISFRVEDQAKDLQIRVTYPDGPGPWPAIIFSHGAMSSKDFYNRVADHWATHGYATILPTHLDSESLGYSFKNPLPREKVFFGRIGDMQFILNHLDEIAGKAGIAGKIEKTKLAVAGHSFGGWTSLILAGLPVKMPDGSLKSFADSRIKALVSYNGIGPMDEIPDAAWAKVAIPVFAASGTNDPGATGSGPVHPWRWRIGAYDYAGSKEKYAVSITMGDHYYGGLICREGAGGKPDPEGLSFVNGSSTAFMDAYLKDDKSAKKFLRTADLRPLTNDRAFLERS | 15.7 µM | 12.8 µM | 17.3 µM | 17.3 µM | 17.2 µM | –
10 | unnamed (protein) MNFPRASRLMQAAVLGGLMAVSAAATAQTNPYARGPNPTAASLEASAGPFTVRSFTVSRPSGYGAGTVYYPTNAGGTVGAIAIVPGYTARQSSIKWWGPRLASHGFVVITIDTNSTLDQPSSRSSQQMAALRQVASLNGTSSSPIYGKVDTARMGVMGWSMGGGGSLISAANNPSLKAAAPQAPWDSSTNFSSVTVPTLIFACENDSIAPVNSSALPIYDSMSRNAKQFLEINGGSHSCANSGNSNQALIGKKGVAWMKRFMDNDTRYSTFACENPNSTRVSDFRTANCS | – | – | – | – | – | Proxy for plastic degradation ([1]; 30 °C, part of the chain shown): 37.5 µM; Proxy for plastic degradation ([1]; 40 °C, part of the chain shown): 31.2 µM; Proxy for plastic degradation ([1]; 50 °C, part of the chain shown): 18 µM; Proxy for plastic degradation ([1]; 55 °C, part of the chain shown): 15.4 µM; Proxy for plastic degradation ([1]; 60 °C, part of the chain shown): 15.6 µM; Proxy for plastic degradation [2]: 18300; Proxy for plastic degradation ([4]; 30 °C, part of the chain shown): 37.5 µM; Proxy for plastic degradation ([4]; 40 °C, part of the chain shown): 31.2 µM; Proxy for plastic degradation ([4]; 50 °C, part of the chain shown): 18 µM; Proxy for plastic degradation ([4]; 55 °C, part of the chain shown): 15.6 µM; Proxy for plastic degradation ([4]; 60 °C, part of the chain shown): 0 µM; Proxy for plastic degradation ([4]; pH 9, 30 °C, 24 h, part of the chain shown): 70.2 µM; Proxy for plastic degradation ([4]; pH 9, 30 °C, 48 h, part of the chain shown): 69.5 µM; Proxy for plastic degradation ([4]; pH 9, 30 °C, 72 h, part of the chain shown): 15.4 µM; Proxy for plastic degradation ([3]; 30 °C): 37.5 µM; Proxy for plastic degradation ([3]; 40 °C): 31.2 µM; Proxy for plastic degradation ([3]; 50 °C): 18 µM; Proxy for plastic degradation ([3]; 55 °C): 15.4 µM; Proxy for plastic degradation ([3]; 60 °C): 15.6 µM
11 | unnamed (protein) MNFPRASRLMQAAVLGGLMAVSAAATAQTNPYARGPNPTAASLEASAGPFTVRSFTVSRPSGYGAGTVYYPTNAGGTVGAIAIVPGYTARQSSIKWWGPRLASHGFVVITIDTNSTLDQPESRSSQQMAALRQVASLNGTSSSPIYGKVDTARMGVMGWSMGGGGSLISAANNPSLKAAAPQAPWHSSTNFSSVTVPTLIFACENDSIAPVNSSALPIYDSMSQNAKQFLEIKGGSHSCANSGNSNQALIGKKGVAWMKRFMDNDTRYSTFACENPNSTAVSDFRTANCS | – | – | – | – | – | Proxy for plastic degradation [5]: 0.141; Proxy for plastic degradation ([6]; 30 °C): 213 µM; Proxy for plastic degradation ([6]; 40 °C): 272 µM; Proxy for plastic degradation ([6]; 50 °C): 2110 µM; Proxy for plastic degradation ([6]; 60 °C): 58 µM
12 | unnamed (protein) MAVITPRRERSSLLSRALRFTAAAATALVTAVSLAAPAHAANPYERGPNPTDALLEARSGPFSVSEERASRFGADGFGGGTIYYPRENNTYGAVAISPGYTGTQASVAWLGKRIASHGFVVITIDTNTTLDQPDSRARQLNAALDYMINDASSAVRSRIDSSRLAVMGHSMGGGGSLRLASQRPDLKAAIPLTPWHLNKNWSSVRVPTLIIGADLDTIAPVLTHARPFYNSLPTSISKAYLELDGATHFAPNIPNKIIGKYSVAWLKRFVDNDTRYTQFLCPGPRDGLFGEVEEYRSTCPF | – | – | – | – | – | Proxy for plastic degradation ([4]; 30 °C): 2.77 µM; Proxy for plastic degradation ([4]; 40 °C): 2.15 µM; Proxy for plastic degradation ([4]; 50 °C): 2.1 µM; Proxy for plastic degradation ([4]; 55 °C): 2.23 µM; Proxy for plastic degradation ([4]; 60 °C): 0 µM
13 | unnamed (protein) MSHRFRLAAAVCVAAAILVPATPAAAADPWDAPGPYATAVQIGAVNTLYYPRDIASSPRRHPVIVWGNGTGAAPLVYRDLLLYWASHGFIVSAANTPASNLGISMRLGIDALAAADADPGSIFRGKVDLAHIGASGHSQGGAAAIVVGADPRIDAILPIQPGPLADIDDVHVPALLLAGQHDSIVFPFLVKAFYNDATHIPAIYAEVRGADHFTVVGDPGPFAAPTTAWFRFQLMGDTAARAEFYGPSCGICTDTRTWSDVRRNALVP | 13 µM | 13.4 µM | 14.2 µM | 13.4 µM | 14.1 µM | –
